A short description of series [1]: Dicamba decarboxylase activity / product analysis with purified His-tag protein (14C assay and product detection of Example 1). The format is biochemical. The conditions noted are these: for dicamba decarboxylase activity: statement of the description. As for the experimental part:
To obtain purified protein for activity assays, IPTG-induced cells were harvested by centrifugation at 7,000 rpm for 10 mins Cell pellet from 50 mL of cell culture was frozen and thawed twice and then lysed in 8004 lysis buffer consisting of 50 mM potassium phosphate buffer (pH7.0), 50 μM ZnSO4, 5% EG, 50 mM KCl, 1 mM DTT, 0.2 mg/ml lysozyme, 1/200 protease inhibitor cocktail (EMD set3, EDTA free), and 1/2,000 endonuclease. Lysate was then centrifuged at 13,000 rpm for 45 min at 4° C. Supernatant was loaded onto 200 μL Ni-NTA columns pre-equilibrated with 10 mM His Buffer containing 25 mM potassium phosphate buffer pH7, 50 μM ZnSO4, 5% EG, 200 mM KCl, and 10 mM histidine. The columns were let sit at 4° C. until the entire supernatant passed through. Each column was then washed with 200 ul 10 mM His Buffer twice and then 4 times with 800 ul loading buffer consisting of 25 mM potassium phosphate buffer pH7, 50 μM ZnSO4, 5% EG, 200 mM KCl. Protein was eluted with 1504 of Elution Buffer consisting of 25 mM potassium phosphate buffer pH7, 50 μM ZnSO4, 5% EG, 100 mM KCl, 100 mM histidine, 10% glycerol. The protein concentration was measured by Bradford assay. Purified protein was used for dicamba decarboxylase activity measurement as described in Example 1. Enzyme kinetic characterization of selected dicamba decarboxylases was determined through GC/MS measurement of 2,5-DCP or PEPC coupled assay as described in Example 1.

A short description of series [2]: GC/MS detection of decarboxylation product 2,5-DCA (toluene trapping or head space). The format is biochemical. The conditions noted are these: purified protein, dicamba substrate. On the procedure: Alternatively, dicamba decarboxylase activity can be monitored by measuring decarboxylation products other than CO2 using product detection methods. The decarboxylation product of dicamba, 2,5-dichloro anisole or 2,5-DCA (FIG. 1C), is a volatile compound with a flash point of 21° C. To capture this volatile compound for detection, 140 ul of toluene solution is added on top of 1 ml reaction mixture to form a trapping layer in a 1.5 ml eppendorf tube. […] The reaction is kept still at room temperature overnight before being vortex mixed and centrifuged at 14,000 rpm for 15 minutes. The top toluene phase is carefully removed using a micropipette and transferred into a 12×32 mm polypropylene vial (Vial 11 mm) from MicroLiter Analytical Supplies, Inc. (catalog number 11-5300-100). The vial is sealed with Crimp seal (11 mm with FEP/Nat Rubber) from MicroLiter Analytical Supplies, Inc. (catalog number 11-0020A) using a E-Z Crimper™ 11 mm from Wheaton Inc. lul of the toluene mixture is taken from the sealed vials and injected in splitless mode into a GC/MS system for sample analysis (Agilent GC/MS system with a 6890A GC, a 5973N MSD and a CTC CombiPAL auto-sampler or with a 7890A GC, a 5975C MSD and an Agilent GC Sampler 80 auto-sampler). The GC parameters are: Agilent DB-5MS column (30 m length, 0.25 mm diameter, 0.25 um film) or equivalent; The GC inlet temperature, 250° C.; Carry gas, helium in constant flow mode (1.2 mL/min); The GC oven temperature program, initial temperature at 70° C. for 1 min, ramping to 200° C. at 15° C./min, and then ramping to 250° C. at 30° C./min. MS data acquisition is done in SIM (selected ion monitoring) mode, monitoring the positive ion at M/Z 176 for the molecular ion of […]. The solvent delay for MS acquisition is set at 4 min. Another method for detection of 2,5-DCA is a head-space GC/MS method. Briefly, reaction mixtures in 500 ul reaction volume are prepared in 1.5 ml 12×32 mm glass vials (Microliter Analytical Supplies, Cat#11-1200) for head space analysis. Glass vials are sealed with magnetic cap from MicroLiter Analytical Supplies, Inc. (catalog number 11-0030AT) using a E-Z Crimper™ 11 mm from Wheaton Industries Inc. The reaction is carried out at room temperature for various amount of time and stopped by heating at 95° C. for 5 min. The reaction vial is transferred to a agitator for incubation at 80° C. for 5 min at 500 rpm. With a syringe preheated at 80° C., 1000 uL of head space is injected with sample fill speed at 100 uL/sec. GC/MS parameters for headspace analysis are the same as for liquid sample analysis.

Series [3] is described as follows: Saturation mutagenesis of SEQ ID NO:109: dicamba decarboxylation activity of point mutants (CO2 released), fold of backbone (Tables 7, 8, Megatable 1). As to conditions: decarboxylation activity (CO2 released) of point mutant vs unmutated backbone protein; backbone SEQ ID NO: 109.
Series [4] can be described thus: GC/MS detection of 2,5-DCP. The format is biochemical. As to conditions: purified protein, dicamba substrate. On the procedure:
The decarboxylated and demethylated product of dicamba, 2,5-dichloro phenol or 2,5-DCP (FIG. 1E) is measured using a GC/MS analytical procedure with either liquid injection after liquid/liquid extraction using toluene as the extraction solvent or gas injection using head space method. The head space sample analysis is carried out on an Agilent GC/MS system with a 6890A GC, a 5973N MSD and a CTC CombiPAL auto-sampler or with a 7890A GC, a 5975C MSD and an Agilent GC Sampler 80 auto-sampler with Phenomenex ZB-MultiResidue-1 column (30 m length, 0.25 mm diameter, 0.25 um film) or equivalent. GC/MS parameters are: GC inlet temperature, 200° C.; Carry gas, helium in constant flow mode (1.2 mL/min); Oven temperature program, 70° C. for 1 min and then ramp to 275° C. at 40° C./min. Protein reactions are carried out in a 1.5 ml 12×32 mm glass vials for head space analysis as described previously. The reaction vial is transferred to a agitator for incubation at 90° C. for 4 min at 500 rpm. With a syringe preheated at 110° C., 1000 uL of head space is injected with sample fill speed at 100 uL/sec. A 2-mm diameter liner is used in sample inlet. The MS data acquisition is done in SIM (selected ion monitoring) mode. The positive ion at M/Z 162 for the molecular ion of 2,-5-DCP is monitored at retention time of 4.06 min. Solvent delay for MS acquisition is set at 3 min. […]

Series [5] in a line: LC-MS/MS detection of 4-chloro-3-methoxy phenol. The format is biochemical. The conditions noted are these: purified protein, dicamba substrate. On the procedure: The decarboxylated and chloro hydrolyzed product, 4-chloro-3-methoxy phenol (FIG. 1D), is measured using a LC-MS/MS analytical procedure. […] 10 ul is removed from the reaction mixture and mixed with 90 ul pre-chilled methanol followed by centrifugation at 14,000 rpm for 15 min at 4° C. 10 ul of the supernatant is then transferred into 170 ul ddH2O to achieve 5% methanol solution for injection. 50 ul of the prepared sample is injected into a 4000 Q Trap LC-MS/MS system for sample analysis. LC-MS/MS parameters are: Mobile Phase A, 2 mM ammonium acetate in water; Mobile Phase B, 2 mM ammonium acetate in methanol; Column, Aquasil, 100×2.1 mm, 3 μm, C18 column; Flow Rate, 0.6 ml/min. The MS/MS fragment 157/142 which is common to 4-chloro-3-methoxy phenol, 2-chloro-5-methoxy phenol, and 3-chloro-5-methoxy phenol is monitored at a retention time of 2.88 min.

B1: 122 (protein)
chain: MAIIDCHGHYTTTPKGVEDYRNAQKAAVAKDPSFKGEKGQVVVSDDEIRESIENNQLKMQRERGTDLTIFSPRSTAGGHHIGNEYTSQFWTEHQNDLIRRVCDLFPKNFAPVAQLPQSPGVDPAKSVPEIVRTVEQMGFIGINLNPDPSGGYWKDTSLADRAFYPIYEKMVEYDIPAMIHPRNACNDCFHTTGSHALGADTTGFQQLIMSDVFKDFPSLKIIIPHGGGAVPYHWGRFRGLMQDQGYAPLEESALKNIYFDTCVYHQRGIDLLLDIVPTQNILFASDMIGAVRGIDPETGHNFDDTKRYIDNNTALNAEEKAMIFEGNARRVFSRLKTD
modifications: Dicamba decarboxylase variant clone: DC.12.103
For the molecule B1, the “other products (than 2,5-DCA)” value in series [1] (purified protein, dicamba substrate) was “not detected”. In addition, in series [1], the dicamba decarboxylase activity result is recorded as “shown herein to have dicamba decarboxylase activity”. Further, the “minor decarboxylation product 2,5-DCA” value in series [2] was “detected”. In series [3], the “Fold Activity” value worked out at 0.9 fold.

B2: 1 (protein, listed as Rhizobium sp.)
chain: MAQGKVALEEHFAIPETLQDSAGFVPGDYWKELQHRLLDIQDTRLKLMDAHGIETMILSLNAPAVQAIPDRRKAIEIARRANDVLAEECAKRPDRFLAFAALPLQDPDAATEELQRCVNDLGFVGALVNGFSQEGDGQTPLYYDLPQYRPFWGEVEKLDVPFYLHPRNPLPQDSRIYDGHPWLLGPTWAFAQETAVHALRLMASGLFDEHPRLNIILGHMGEGLPYMMWRIDHRNAWVKLPPRYPAKRRFMDYFNENFHITTSGNFRTQTLIDAILEIGADRILFSTDWPFENIDHASDWFNATSIAEADRVKIGRTNARRLFKLDGA
With B2, the dicamba decarboxylase activity entry in series [1] is on record as “native dicamba decarboxylase activity”. Also, in series [2], the “relative amount of 2,5-DCA compared to CO2 formation (100%)” value was under 1%. Besides, the “relative amount of 2,5-DCP compared to CO2 formation (100%)” value in series [4] is over 80%. In addition, the “relative amount of 4-chloro-3-methoxy phenol compared to CO2 formation (100%)” value in series [5] is reported as under 10%. In series [3], the “Fold Activity” value is 1.2 fold.

Source of the values: patent US20160040149A1, “Compositions Having Dicamba Decarboxylase Activity and Methods of Use” (priority 2013, published 2016).
